The test deals with MAPKAP Kinase II (MK2).

B1: WLRRIKA (peptide)
peptide: WLRRIKA
As to B1, the % of … [SEQ ID NO: 115] Reaction Velocity at an Inhibitor Concentration of 100 µM was 394%.

These data come from patent US9447158B2.
